Data: patent US11433139B2, “Peptide vaccines against interleukin-31” (Zoetis Services LLC, priority 2018, dated 2022)

B1: ZIL154: fully canine anti IL-31 antibody, VH SEQ ID NO: 99, VL SEQ ID NO: 101 (antibody, listed as Canis familiaris, V domains shown)
VH: EVHLVESGGDLVKPWGSLRLSCVASGFTFSDRGMSWVRQSPGKGLQWVAYIRYDGSRTDYADAVEGRFTISRDNAKNTLYLQMNSLRAEDTAVYYCARWDGSSFDYWGQGTLVTVSS
VL: DIVVTQTPLSLSVSPGETASFSCKASQSLLHSDGNTYLDWFRQKPGQSPQRLIYKVSNRDPGVPDRFSGSGSGTDFTLRISGVEADDAGLYYCMQAIHFPLTFGAGTKVELK
B2: ZIL11: fully canine anti IL-31 antibody, VH SEQ ID NO: 87, VL SEQ ID NO: 89 (antibody, listed as Canis familiaris, V domains shown)
VH: EVQLVESGGDLVKPAGSLRLSCVASGFTFRTYVMNWVRQAPGKGLQWVASINGGGSSPTYADAVRGRFTVSRDNAQNSLFLQMNSLRAEDTAVYFCVVSMVGPFDYWGQGTLVTVSS
VL: SSVLTQPPSVSVSLGQTATISCSGESLSNYYAQWFQQKAGQAPVLVIYKDTERPSGIPDRFSGSSSGNTHTLTISGARAEDEADYYCESAVSSDTIVFGGGT
B3: Feline 11E12 1.2: felinized 11E12, FEL_11E12_VH1 paired with FEL_11E12_VL2 (antibody, V domains shown)
VH: QVLLVQSGAEVKKPGASVKIFCKASGYSFTYYDINWLRQAPEQGLEWMGWIFPGDGGTKYNETFKGRLTLTADTSTNTVYMELSSLRSADTAMYYCARGGTSVIRDAMDYWGQGALVTVSS
VL: EVVLTQSSAFLSRTLKEKATITCRASESVDNYGISFMHWYQQKPNQAPKLLVKRASNLESGAPSRFSGSGSGTDFTLTISSPEPEDAATYYCQQSNKDPLTFGQGT
B4: Feline 11E12 1.1 FW2: Fel_11E12_VH1 paired with Feline 11E12 VL1 carrying mouse FW2 (antibody, V domains shown)
VH: B3 VH
VL: EIQMTQSPSSLSASPGDRVTITCRASESVDNYGISFMHWYQQKPGQPPKLLIYRASNLESGVPSRFSGSGSGTDFTLTISSLEPEDAATYYCQQSNKDPLTFGQGT
B5: 15H05 mouse: canine chimera: mouse 15H05 variable regions on canine IgG constant regions (antibody)
heavy: QVQLQQSAAELARPGASVKMSCKTSGYTFTSYTIHWIKQRPGQGLEWIGNINPTSGYTENNQRFKDKTTLTVDRSSNTAYLQLHSLTSEDSAVYFCARWGFKYDGEWSFDVWGAGTTVTVSSASTTAPSVFPLAPSCGSTSGSTVALACLVSGYFPEPVTVSWNSGSLTSGVHTFPSVLQSSGLYSLSSMVTVPSSRWPSETFTCNVAHPASKTKVDKPVPKRENGRVPRPPDCPKCPAPEMLGGPSVFIFPPKPKDTLLIARTPEVTCVVVDLDPEDPEVQISWFVDGKQMQTAKTQPREEQFNGTYRVVSVLPIGHQDWLKGKQFTCKVNNKALPSPIERTISKARGQAHQPSVYVLPPSREELSKNTVSLTCLIKDFFPPDIDVEWQSNGQQEPESKYRTTPPQLDEDGSYFLYSKLSVDKSRWQRGDTFICAVMHEALHNHYTQESLSHSPGK
light: DIQMNQSPSSLSASLGDTITVTCRASQGISIWLSWYQQKPGNIPKVLINKASNLHIGVPPRFSGSGSGTHFTLTITSLQPEDIATYYCLQSQTYPLTFGGGTKLEINRNDAQPAVYLFQPSPDQLHTGSASVVCLLNSFYPKDINVKWKVDGVIQDTGIQESVTEQDKDSTYSLSSTLTMSSTEYLSHELYSCEITHKSLPSTLIKSFQRSEC
B6: ZTS-927: felinized anti IL-31 15H05 mAb, FEL_15H05_VH1 with Feline_HC_AlleleA_wt, FEL-15H05-VL1_FW2 light chain (antibody, V domains shown)
VH: QVLLVQSGAEVRTPGASVKIFCKASGYSFTSYTIHWLRQAPAQGLEWMGNINPTSGYTENNQRFKDRLTLTADTSTNTAYMELSSLRSADTAMYYCARWGFKYDGEWSFDVWGAGTTVTVSS
VL: EIQMTQSPSSLSASPGDRVTITCRASQGISIWLSWYQQKPGNIPKVLINKASNLHIGVPSRFSGSGSGTDFTLTISSLEPEDAATYYCLQSQTYPLTFGGGTKLEIK
modifications: feline constant regions joined; Felinized variable heavy mAb sequence, from Mus musculus and Felis catus; Felinized variable light mAb sequence, from Mus musculus and Felis catus

Experiments:
[1] = system: wildtype feline IL-31; experiment: Indirect ELISA, binding to wildtype feline IL-31
wildtype feline IL-31, sequence (as listed by the source): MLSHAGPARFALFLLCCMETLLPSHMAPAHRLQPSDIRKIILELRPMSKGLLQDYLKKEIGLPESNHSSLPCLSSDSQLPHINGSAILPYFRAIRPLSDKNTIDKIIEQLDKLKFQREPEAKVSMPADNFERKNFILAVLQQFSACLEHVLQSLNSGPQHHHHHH
Description: (§1) Mice and dogs were immunized with recombinant canine IL-31 (SEQ ID No. 155) for the purpose of identifying antibodies. Serum antibody titers from immunized animals were determined using an enzyme linked immunosorbent assay (ELISA). Canine or feline IL-31 (50 ng/well) was immobilized to polystyrene microplates and used as a capture antigen. Serum from immunized animals was diluted in phosphate buffered saline with 0.05% tween-20 (PBST). The presence of anti-IL-31 antibodies was detected with an appropriate secondary HRP labeled antibody. Following addition of a chromogenic substrate (SureBlue Reserve TMB 1-Component Microwell Peroxidase Substrate, KPL, Inc., Gaithersburg, Md.) and a ten minute incubation at room temperature (RT) the reaction was stopped with the addition of […] of 0.1 N HCl. The absorbance of each well was determined at an optical density (OD) of 450 nm. Antibodies were selected for their ability to bind canine and feline IL-31 using an ELISA. In some cases, further characterization was performed at the time of selection using an ELISA with a mutant form of the feline IL-31 protein as a capture antigen. Cells producing antibodies with desired binding and inhibitory properties were chosen for sequence analysis of RNA transcripts representing the variable heavy (VH) and variable light (VL) IgG chains.
(§2) For the indirect ELISA method, antibody binding to wildtype and feline IL-31 15H05 mutant proteins was assessed. […] In comparison, the 11E12 antibody bound to the wild-type feline IL-31 and its binding was not impacted by the mutations in the 15H05 epitope region as evidenced by the data in FIG. 4. To confirm binding, biacore analysis was performed using canine, feline, equine, human, feline 15H05 mutant, and feline 11E12 mutant IL-31 proteins as surfaces and a single test concentration of antibody. Similar to ELISA observations, all antibodies tested bound to wildtype feline IL-31. In agreement with the data described above in this section, mouse antibodies 11 E12 and 15H05 both bound to canine and feline IL-31 surfaces. […] From this group of nine fully canine antibodies, only ZIL1 and ZIL9 cross-reacted with equine IL-31. Of note, antibody 15H05 was the only one of all assayed herein that bound to canine, feline, and equine IL-31 indicating some level of epitope conservation across the three species. In contrast, none of the antibodies described herein bound to human IL-31. Additional biacore surfaces were used to verify ELISA observations showing differential binding of antibodies to wildtype feline IL-31 and two proteins with mutations in the 15H05 (15H05 mutant) or 11 E12 (11E12 mutant) epitopes. […] Differing results can be attributed to differences in the two assay methodologies.
(§3) To determine the impact of mAbs 11E12 and 15H05 ability to bind these mutant forms of feline IL-31, an indirect ELISA was run using the mutants directly coated on to an immunoassay plate. […] The minor attenuation of mAb 15H05s binding to the 11E12 mutant is likely due to translational effects of the mutations from movement of the two front helices effecting the 15H05 binding site. The mutations designed to affect mAb 15H05s binding (mutant 15H05) show a complete loss of mAb 1505s ability to bind this IL-31 mutant by ELISA. Unlike the 11E12 mutant, the changes in the random coil recognized by mAb 15H05 (mutant 15H05) had no impact on mAb 11E12 binding further supporting the distinction between the two epitopes (FIG. 6C).

[2] = system: feline IL-31 15H05 mutant; experiment: Indirect ELISA, binding to feline IL-31 15H05 mutant; conditions: compared with wildtype
feline IL-31 15H05 mutant, sequence (as listed by the source, change not shown): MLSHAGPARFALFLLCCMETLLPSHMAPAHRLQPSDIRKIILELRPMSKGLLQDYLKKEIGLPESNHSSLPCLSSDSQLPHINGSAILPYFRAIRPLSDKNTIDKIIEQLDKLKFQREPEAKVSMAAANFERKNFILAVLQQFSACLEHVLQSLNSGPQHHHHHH
Description: as §1, §2, §3

[3] = system: feline IL-31; experiment: Inhibition of feline IL-31 induced pSTAT3 signaling in canine DH-82 cells; type: cell-based; conditions: feline IL-31, pSTAT3, canine DH82 cells (FIG. 3)
Description: (§4) To identify candidates with inhibitory activity, antibodies were assessed for their ability to affect IL-31-mediated STAT3 phosphorylation in either a canine or feline cell-based assay. STAT3 phosphorylation was determined in canine DH-82 (ATCC® CRL-10389™) or feline FCWF4 macrophage-like cells (ATCC CRL-2787). DH82 and FCWF4 cells were primed with canine interferon gamma (R&D Systems, Minneapolis, Minn.) at 10 ng/mL for 24 hours or feline interferon gamma (R&D Systems, Minneapolis, Minn.) at 125 ng/mL for 96 hours, respectively, to increase receptor expression. Both cell types were serum starved for 2 hours prior to IL-31 and mAb treatment. Using two independent methods, all candidate mAbs were evaluated for their ability to inhibit either 1 μg/mL canine or 0.2 μg/mL feline IL-31 induced STAT3 phosphorylation. […] To ensure complex formation, a one hour co-incubation of mAb and IL-31 cytokine prior to cell stimulation was completed. IL-31 cell stimulation was carried out for five minutes. STAT3 phosphorylation was measured using AlphaLISA SureFire ULTRA™ technology (Perkin Elmer, Waltham, Mass.). In the case where antibody concentration and purity are unknown, hybridoma supernatants were qualitatively measured for their ability to inhibit STAT3 phosphorylation following a 1 hour co-incubation with […] IL-31. The potency of individual monoclonal antibodies defined by their ability to inhibit IL-31 mediated STAT3 phosphorylation in these assays was considered the key selection criteria for further advancement of select antibodies. The term potency refers to the IC50 value calculated from these assays and is the concentration of the antibody where signaling induced by IL-31 is reduced to one half its maximal value.
Target sequence in this assay (as listed by the source): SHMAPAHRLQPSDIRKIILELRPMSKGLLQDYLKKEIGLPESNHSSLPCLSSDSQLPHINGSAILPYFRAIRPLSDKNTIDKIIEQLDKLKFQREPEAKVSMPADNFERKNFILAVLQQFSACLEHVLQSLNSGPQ

[4] = target: feline IL-31; experiment: Affinity of anti-IL-31 antibodies by surface plasmon resonance (Biacore), feline IL-31 surface; type: binding; conditions: IL-31 conjugated to the surface (FIG. 2)
Description: (§5) The affinity with which candidate mAbs bind canine and feline IL-31 was determined using surface plasmon resonance (SPR) on a Biacore system (Biocore Life Sciences (GE Healthcare), Uppsala, Sweden). To avoid affinity differences associated with differential surface preparation that can occur when immobilizing antibodies to surfaces; a strategy was employed where IL-31 was directly conjugated to the surface. Immobilization was obtained by amine coupling 5 μg/mL IL-31 using N-hydroxysuccinimide (NHS)/1-Ethyl-3-(3-dimethylaminopropyl) carbodiimide (EDC) chemistry. Chips were quenched with ethanolamine and the affinity with which all candidate mAbs bound to the immobilized IL-31 was evaluated. All curves were fit to a 1:1 model. Affinity constants (KD) less than 1×10^−11M (1E-11 M) are below the lower limit of quantitation of detection for the instrument. Results for affinity measurements are described herein.
Target sequence in this assay (as listed by the source): as the sequence (as listed by the source, change not shown) above, with A126P, A128D counted along it

[5] = system: feline IL-31; experiment: Inhibition of feline IL-31 induced pSTAT3 signaling in feline FCWF4 macrophage-like cells; type: cell-based; conditions: 0.2 μg/mL feline IL-31, pSTAT3, FCWF4 cells (FIG. 3)
Description: as §4

[6] = target: canine IL-31; experiment: Affinity of anti-IL-31 antibodies by surface plasmon resonance (Biacore), canine IL-31 surface; type: binding; conditions: IL-31 conjugated to the surface (FIG. 2)
canine IL-31, sequence (as listed by the source): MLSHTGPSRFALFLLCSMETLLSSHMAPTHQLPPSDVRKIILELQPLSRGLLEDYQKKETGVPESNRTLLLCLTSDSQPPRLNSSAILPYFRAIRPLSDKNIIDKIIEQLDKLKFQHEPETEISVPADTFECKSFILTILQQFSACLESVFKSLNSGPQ
Description: as §5

[7] = target: T1, canine IL-31 (Canis lupus familiaris, UniProt A0A8I3S3D1); experiment: Inhibition of canine IL-31 induced pSTAT3 signaling in canine DH-82 and feline FCWF4 cells; type: cell-based; conditions: canine IL-31; canine and feline cell types, cell type of the values not specified
T1 construct: made in house; host or cells: CHO cells (CHROMOS ACE system)
T1 sequence (A0A8I3S3D1 24-159): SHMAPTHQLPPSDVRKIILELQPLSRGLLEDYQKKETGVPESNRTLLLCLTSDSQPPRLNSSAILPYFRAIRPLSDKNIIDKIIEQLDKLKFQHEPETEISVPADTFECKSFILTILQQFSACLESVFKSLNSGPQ
Description: as §4

Molecule	binding to wildtype feline IL-31 (ELISA) [1]	binding to feline IL-31 15H05 mutant (ELISA) [2]	potency (IC50) against feline IL-31 in canine DH82 cells [3]	affinity (KD) to feline IL-31 [4]	potency (IC50) against feline IL-31 in feline FCWF4 cells [5]	affinity (KD) to canine IL-31 [6]	IC50 against canine IL-31 [7]
B1	capable of binding	binding was impacted					
B2	capable of binding	binding was impacted					
B3			complete loss of cellular potency	total loss of binding	complete loss of cellular potency	total loss of binding	
B4			increased potency	KD equivalent to that of the mouse and chimeric form		detrimental effect	
B5			0.71 µg/mL				12.49 µg/mL
B6			highly consistent with values derived from the chimeric and mouse form	highly consistent with that of the mouse and chimeric form	highly consistent with values derived from the chimeric and mouse form		proportionally higher
